Results taken from publication PMC7089970, “Structural insights into catalytic mechanism and product delivery of cyanobacterial acyl-acyl carrier protein reductase” (Nature Communications, 2020).
Positions count from the first letter of the chain named. In names and notes the source's numbering stands. Several values for one entry are separate records, joined by “and”; a condition that tells them apart may be missing. Equal entries are not always repeated. Entries after “also recorded” stand apart in the source; their conditions may differ. Where two headings read alike, the source gives them in different places.

T1: ADO (Synechococcus elongatus, UniProt Q54764)
T1 construct: His6-tag peptide (C, cleaved yes); made in house; host or cells: E. coli BL21(DE3), without chaperone plasmid
T1 sequence (Q54764 1-231): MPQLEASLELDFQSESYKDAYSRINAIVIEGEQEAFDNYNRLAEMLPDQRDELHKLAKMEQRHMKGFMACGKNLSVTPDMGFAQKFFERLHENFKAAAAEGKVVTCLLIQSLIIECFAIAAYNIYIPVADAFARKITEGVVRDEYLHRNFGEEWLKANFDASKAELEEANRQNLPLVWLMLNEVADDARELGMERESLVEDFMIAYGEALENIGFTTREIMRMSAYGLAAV

T2: AAR (Synechococcus elongatus, UniProt Q54765)
T2 construct: modeled the complete AAR protein containing 341 amino acid residues; 22-residue C-terminal peptide with His6 (G + […]) (C, cleaved yes); made in house; host or cells: E. coli BL21(DE3) co-transformed with chaperone plasmid pG-KJE8
T2 sequence (Q54765 1-341): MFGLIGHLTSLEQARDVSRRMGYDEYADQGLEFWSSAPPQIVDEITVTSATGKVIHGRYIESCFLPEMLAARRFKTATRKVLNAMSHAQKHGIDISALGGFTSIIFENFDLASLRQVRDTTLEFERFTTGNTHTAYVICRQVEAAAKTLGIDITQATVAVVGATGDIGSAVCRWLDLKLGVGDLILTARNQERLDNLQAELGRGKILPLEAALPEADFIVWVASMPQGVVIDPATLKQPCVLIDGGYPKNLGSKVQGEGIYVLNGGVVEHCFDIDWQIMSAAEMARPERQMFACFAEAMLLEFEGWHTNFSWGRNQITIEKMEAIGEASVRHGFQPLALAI

B1: AAR R73A (protein)
chain: T2 sequence (Q54765 1-341) with R73A
modifications: left off: His6, C-terminal, cleaved
B2: AAR R79A (protein)
chain: T2 sequence (Q54765 1-341) with R79A
modifications: left off: His6, C-terminal, cleaved
B3: AAR K80A (protein)
chain: T2 sequence (Q54765 1-341) with K80A
modifications: left off: His6, C-terminal, cleaved
B4: ADO E200A/D201A (protein)
chain: T1 sequence (Q54764 1-231) with E200A, D201A
modifications: left off: His6, C-terminal, cleaved
B5: ADO E200A (protein)
chain: T1 sequence (Q54764 1-231) with E200A
modifications: left off: His6, C-terminal, cleaved
B6: ADO E196A (protein)
chain: T1 sequence (Q54764 1-231) with E196A
modifications: left off: His6, C-terminal, cleaved

Tests used:
[1] = ITC; for Kd: read-out: KD value, binding with stearoyl-CoA, presence of potassium ion (+K+, 200 mM KCl), N.D. = not detected
Description: (§1) The binding affinity of AAR with ADO or stearoyl-CoA was measured by isotheral titration calorimetry (ITC) using a MicroCal Auto-ITC200 microcalorimeter (GE Healthcare Bio-sciences, Pittsburgh, PA). […] Wild type or mutants of ADO (or AAR) were placed into the sample cell (200 µL working volume) at a final concentration of 30 µM (60 µM for AAR) and was titrated with successive 2-µL injections of AAR protein with concentration of 500 µM (or ADO protein with concentration of 1 mM). Titrating AAR (500 µM) or ADO (1 mM) into the same buffer was performed as a control to determine the background correction. […] Injection of stearyol-CoA into the reaction buffer was performed as control to determine background correction.

[2] = Enzymatic activity assay of AAR toward stearoyl-CoA (octadecanal by GC-MS); type: biochemical, Synechococcus elongatus PCC 7942
Description: PCC 6803 and Synechocystis sp. […] The extraction step was repeated for three times.

[3] = biological target: T1, ADO; experiment: ITC binding of AAR (wild type and mutants) with ADO; set-up: species or system Synechococcus elongatus PCC 7942
Description: as §1

[4] = biological target: T2, AAR; experiment: ITC binding of ADO (wild type and mutants) with AAR; set-up: species or system Synechococcus elongatus PCC 7942
Description: as §1

Row | Molecule | binding of AAR mutant with ADO (in words) [3] | binding of ADO mutant with AAR (in words) [4] | also measured
1 | AAR wild type: acyl-acyl carrier protein reductase from Synechococcus elongatus PCC 7942, wild type recombinant protein | – | – | binding between AAR and stearoyl-CoA for AAR incubated with NADPH (in words) [1]: not significantly affected by NADPH; Kd ([1]; listed as AAR): 90 nM; Kd ([1]; listed as apo-AAR): ~90 nM; Octadecanal yield, single data (data1-data3) [2]: 5.8 and 7.04 and 5.2
2 | B1 | abolish the binding capability with ADO | – | –
3 | B2 | abolish the binding capability with ADO | – | –
4 | B3 | abolish the binding capability with ADO | – | –
5 | B4 | – | completely lose their capability to bind AAR; also recorded: completely abolished the capability of ADO to bind with AAR | –
6 | B5 | – | significantly reduced binding affinity with AAR | –
7 | B6 | – | significantly reduced binding affinity with AAR | –
